The values that follow come from patent publication US9758792B2, “Glyphosate resistant class 1 EPSPS genes” (SYNGENTA PARTICIPATIONS AG, priority 2013, dated 2017).

Assay [1] concerns the target native EPSPS from E. coli (Escherichia coli, UniProt P0A6D3). Particulars: read-out: apparent Km for PEP; cited from earlier work.
A further assay concerns tobacco leaf discs. As to the kind of experiment: Screening maize mutants using tobacco regeneration system on glyphosate medium. Type of assay: cell-based. The conditions noted are these: regeneration medium containing 50 nM glyphosate and 200 mg/L Timentin. The procedure: The efficacy of maize mutant genes (Table 2) were tested using a tobacco leaf discs transformation/regeneration system. […] Additionally, a third mutant comprising the mutations of mutant #8 and #13 is possible resulting in an […] mutant.

The test system of assay [2] is T0 transgenic tobacco plants. As to the kind of experiment: Spray with glyphosate (Touchdown) on ZmEPSPS mutant containing tobacco. It is filed as in vivo. The conditions noted are these: for tolerance to Touchdown spray: 2× and 4× field rates; for tolerance to Touchdown spray / herbicide damage: 2 weeks post treatment; for herbicide damage: 4× field rates as printed in the text; for Damage: assessed 2 weeks post treatment. The procedure:
T0 transgenic tobacco plants were grown on soil for 4 weeks in Conviron growth chambers. These plants were sprayed with 2×, 4× and 8× Touchdown herbicide at 2×, 4× and 8× field rate (1× field rate=1680 g AE/Ha), respectively, and the herbicide damage was assessed 2 weeks post treatment. […]

Setting [3] is: Touchdown 2X field rate (1X = 1680 g AE/Ha).
Setting [4] is: Touchdown 4X field rate (1X = 1680 g AE/Ha).
[5] abbreviates: Touchdown 8X field rate (1X = 1680 g AE/Ha).

Residue numbers refer to the chain shown, from its start. Names and notes keep the numbering of the source.

Chain of native EPSPS from E. coli (P0A6D3 whole entry): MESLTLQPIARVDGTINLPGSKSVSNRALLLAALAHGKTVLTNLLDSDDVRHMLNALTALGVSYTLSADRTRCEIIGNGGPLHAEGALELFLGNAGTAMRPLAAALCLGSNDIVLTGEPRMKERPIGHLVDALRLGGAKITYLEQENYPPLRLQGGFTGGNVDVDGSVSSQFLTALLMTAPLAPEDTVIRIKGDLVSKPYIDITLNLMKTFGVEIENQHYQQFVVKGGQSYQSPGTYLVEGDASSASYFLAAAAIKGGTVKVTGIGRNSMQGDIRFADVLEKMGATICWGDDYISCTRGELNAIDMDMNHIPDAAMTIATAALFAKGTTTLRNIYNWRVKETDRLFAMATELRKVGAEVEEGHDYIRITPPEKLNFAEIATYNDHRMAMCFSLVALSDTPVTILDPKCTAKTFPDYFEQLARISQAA

In general, Km refers to the concentration of substrate that gives half-maximal velocity. Take `C=C(OP(=O)(O)O)C(=O)O` [PEP, phosphoenolpyruvic acid]: the Km in assay [1] was 10 µM.

B1: ZmEPSPS-20: maize EPSPS mutant gene/protein, A68D and T102I; contains Table 2 mutant #13; SEQ ID NO. 6 (protein)
chain: AGAEEIVLQPIKEISGTVKLPGSKSLSNRILLLAALSEGTTVVDNLLNSEDVHYMLGALRTLGLSVEXDKAAKRAVVVGCGGKFPVEDAKEEVQLFLGNAGIAMRPLTAAVTAAGGNATYVLDGVPRMRERPIGDLVVGLKQLGADVDCFLGTDCPPVRVNGIGGLPGGKVKLSGSISSQYLSALLMAAPLALGDVEIEIIDKLISIPYVEMTLRLMERFGVKAEHSDSWDRFYIKGGQKYKSPKNAYVEGDASSASYFLAGAAITGGTVTVEGCGTTSLQGDVKFAEVLEMMGAKVTWTETSVTVTGPPREPFGRKHLKAIDVNMNKMPDVAMTLAVVALFADGPTAIRDVASWRVKETERMVAIRTELTKLGASVEEGPDYCIITPPEKLNVTAIDTYDDHRMAMAFSLAACAEVPVTIRDPGCTRKTFPDYFDVLSTFVKN
modifications: Mutated zea mays; (68)..(68) X = D or E
On to B1, for which the “ability to regenerate on glyphosate media” value with tobacco leaf discs is listed as “tolerant mutants”. Moreover, in assay [2], the “tolerance to Touchdown spray” value is “completely tolerant”. The herbicide damage result in assay [2] was “only minor damage”. For the same molecule, the Damage result in assay [2] (setting [3]) was “No damage”; in assay [2] (setting [4]), “No damage”; in assay [2] (setting [5]), “Minor damage at shoot apex”.

B2: ZmEPSPS-27: maize EPSPS mutant gene/protein, A68E and G101C; contains Table 2 mutant #8; SEQ ID NO. 7 (protein)
chain: B1 chain with G101C, I102T
modifications: Mutated zea mays; (68)..(68) X = D or E
As for B2, in the assay on tobacco leaf discs, the “ability to regenerate on glyphosate media” value was “tolerant mutants”. Also, the “tolerance to Touchdown spray” value in assay [2] was “completely tolerant”. Besides, the herbicide damage result in assay [2] was “only minor damage”. Besides, the Damage entry in assay [2] (setting [3]) is “No damage”; in assay [2] (setting [4]), “No damage”; in assay [2] (setting [5]) it was “Minor damage, some”.
